The text below walks through data of patent publication US20220119534A1 (DRAGONFLY THERAPEUTICS, published 2022).

Read-outs that look alike come from different tables or passages of the source.

Assay [1] has as its target T1, mFc-hNKG2D (recombinant mFc-tagged human NKG2D dimer) (human, UniProt P26718 73-216).
T1 construct: extracellular domain; Made in house; not shown: mouse Fc tag
T1 sequence (looked up): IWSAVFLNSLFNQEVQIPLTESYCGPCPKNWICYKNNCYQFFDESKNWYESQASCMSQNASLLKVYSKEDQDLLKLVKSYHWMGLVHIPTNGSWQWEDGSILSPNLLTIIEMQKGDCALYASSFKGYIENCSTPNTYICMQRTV
Description: SPR; control sample. For orientation: In SPR one partner is held on a chip, and binding of the other changes the refractive index at the surface.

Assay [2] addresses T2, Human CD16a V158 (FcγRIIIa V158) (human, UniProt P08637 17-208, biotinylated).
T2 construct: Bought recombinant receptor; also called hCD16aV; hFcγRIIIa V158
Nature of the assay: SPR; control sample.

Assay [3] addresses T1, mFc-hNKG2D (recombinant mFc-tagged …). Description: SPR; control sample. This is another data set of the same source.
The target in assay [4] is T2, Human CD16a V158 (FcγRIIIa V158). Description: SPR; control sample. This is another data set of the same source.
Assay [5] has as its target T3, Human CLEC12A expressed on cells (Ba/F3-hCLEC12A, PL21, HL60) (human, UniProt Q5QGZ9 1-265).
T3 sequence: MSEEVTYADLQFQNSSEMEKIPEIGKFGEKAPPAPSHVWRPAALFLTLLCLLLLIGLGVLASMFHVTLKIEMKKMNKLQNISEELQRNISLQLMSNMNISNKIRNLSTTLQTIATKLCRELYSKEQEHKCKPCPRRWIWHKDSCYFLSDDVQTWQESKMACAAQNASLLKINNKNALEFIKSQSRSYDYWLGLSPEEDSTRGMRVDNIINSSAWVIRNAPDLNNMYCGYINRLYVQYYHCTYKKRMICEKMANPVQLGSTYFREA
Nature of the assay: cell-based or functional assay.

Assay [6] concerns the target T4, Human CLEC12A-His (recombinant, K244 WT) (human, UniProt Q5QGZ9 65-265).
T4 construct: Made in house (Dragonfly Tx); also called hCLEC12A; hCLEC12A-His; not shown: His tag
T4 sequence: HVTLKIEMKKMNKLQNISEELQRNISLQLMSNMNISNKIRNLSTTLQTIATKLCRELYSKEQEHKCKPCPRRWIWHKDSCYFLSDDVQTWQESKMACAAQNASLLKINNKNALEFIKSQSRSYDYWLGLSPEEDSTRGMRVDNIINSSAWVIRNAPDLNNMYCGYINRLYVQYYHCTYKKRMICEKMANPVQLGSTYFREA
Description: SPR, two-state fit (ka1).

A further assay concerns the target T5, Human CLEC12A-K244Q-His (human, UniProt Q5QGZ9 65-265).
T5 construct: also called hCLEC12A (Q244); CLEC12A (Q244); not shown: His tag
T5 chain: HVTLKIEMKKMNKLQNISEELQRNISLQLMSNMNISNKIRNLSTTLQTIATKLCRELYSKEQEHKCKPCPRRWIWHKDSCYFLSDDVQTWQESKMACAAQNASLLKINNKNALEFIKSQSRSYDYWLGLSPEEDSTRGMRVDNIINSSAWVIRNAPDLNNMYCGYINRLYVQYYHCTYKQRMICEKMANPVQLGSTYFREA
Description: SPR, two-state fit (ka1).

Assay [7] has as its target T4, Human CLEC12A-His (recombinant, K244 WT). Nature of the assay: SPR, two-state fit; control sample.
The target is the same in assay [8]. Nature of the assay: SPR, two-state fit (kd1); after low pH hold.
Assay [9] has the same target. Nature of the assay: SPR, two-state fit (ka1); after 4 wks 40C in HST pH 6.0.

T2 sequence (P08637 17-208 F176V limits assumed): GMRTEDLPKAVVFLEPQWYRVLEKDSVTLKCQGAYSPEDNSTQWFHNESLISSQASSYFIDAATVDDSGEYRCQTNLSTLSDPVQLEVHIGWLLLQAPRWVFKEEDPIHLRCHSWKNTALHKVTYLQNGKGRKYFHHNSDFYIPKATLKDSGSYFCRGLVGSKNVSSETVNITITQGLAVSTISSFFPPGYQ

B1: AB0089 TriNKET (bispecific antibody, human IgG1, kappa)
chain: QLQLQESGPGLVKPSETLSLTCTVSGFSLTNYGLHWIRQPPGKCLEWIGVIWVGGATDYNPSLKSRVTISVDTSKNQFSLKLSSVQAADTAVYYCAKGDYGDTLDYWGQGTLVTVSSGGGGSGGGGSGGGGSGGGGSDIQMTQSPSSLSASVGDRVTITCHASQNINFWLSWYQQKPGKAPKLLIYEASNLHTGVPSRFSGSGSGTDFTLTISSLQPEDFATYYCQQSHSYPLTFGCGTKLEIKGSDKTHTCPPCPAPELLGGPSVFLFPPKPKDTLMISRTPEVTCVVVDVSHEDPEVKFNWYVDGVEVHNAKTKPREEQYNSTYRVVSVLTVLHQDWLNGKEYKCKVSNKALPAPIEKTISKAKGQPREPRVYTLPPCRDELTKNQVSLTCLVKGFYPSDIAVEWESNGQPENNYKTTPPVLVSDGSFTLYSKLTVDKSRWQQGNVFSCSVMHEALHNHYTQKSLSLSPG
heavy: EVQLVESGGGLVKPGGSLRLSCAASGFTFSSYSMNWVRQAPGKGLEWVSSISSSSSYIYYADSVKGRFTISRDNAKNSLYLQMNSLRAEDTAVYYCARGAPIGAAAGWFDPWGQGTLVTVSSASTKGPSVFPLAPSSKSTSGGTAALGCLVKDYFPEPVTVSWNSGALTSGVHTFPAVLQSSGLYSLSSVVTVPSSSLGTQTYICNVNHKPSNTKVDKKVEPKSCDKTHTCPPCPAPELLGGPSVFLFPPKPKDTLMISRTPEVTCVVVDVSHEDPEVKFNWYVDGVEVHNAKTKPREEQYNSTYRVVSVLTVLHQDWLNGKEYKCKVSNKALPAPIEKTISKAKGQPREPQVCTLPPSRDELTENQVSLTCLVKGFYPSDIAVEWESNGQPENNYKTTPPVLDSDGSFFLYSWLTVDKSRWQQGNVFSCSVMHEALHNHYTQKSLSLSPG
light: DIQMTQSPSSVSASVGDRVTITCRASQGISSWLAWYQQKPGKAPKLLIYAASSLQSGVPSRFSGSGSGTDFTLTISSLQPEDFATYYCQQGVSFPRTFGGGTKVEIKRTVAAPSVFIFPPSDEQLKSGTASVVCLLNNFYPREAKVQWKVDNALQSGNSQESVTEQDSKDSTYSLSSTLTLSKADYEKHKVYACEVTHQGLSSPVTKSFNRGEC
notes: F3' format heterodimer of three chains; human IgG1 Fc with EW-RVT and Y349C/S354C mutations; also called AB0089 Lot AB0089-002; CLEC12A TriNKET AB0089
For orientation: Kd means the equilibrium constant for the complex coming apart. For orientation: koff means the first-order rate constant of dissociation. A word on the kon: it is a measure of how fast the partners come together. On to B1, for which the Kd in [1] is 797 nM; in assay [2] it was 322 nM; in assay [3] it was 797 nM; in [4], 322 nM; in assay [7], 0.7 nM. The koff in assay [1] amounted to 0.135 s⁻¹; in assay [2] it was 0.0278 s⁻¹; in assay [3], 0.135 s⁻¹; in assay [4] it was 0.0278 s⁻¹; in assay [8] it was 0.0465 s⁻¹. For the same molecule, the kon was 169000 M⁻¹ s⁻¹ in assay [1]; 86400 M⁻¹ s⁻¹ in assay [2]; 169000 M⁻¹ s⁻¹ in assay [3]; 86400 M⁻¹ s⁻¹ in [4]; 1.63e+07 M⁻¹ s⁻¹ in assay [6]; 9.7e+06 M⁻¹ s⁻¹ with Human CLEC12A-K244Q-His. In addition, the on-rate (kon) in assay [9] was 7.91e+06 M⁻¹ s⁻¹. Moreover, the “EC50, NK cell induction of IFNγ and CD107a in co-culture with PL21 cells (mean of three donors)” value in assay [5] came to 0.08 nM.
